We go through 9 molecules from US20230086069A1 (SYSTIMMUNE, published 2023).

Assay [1] has as its target T1, His-tagged human CD19 (human, UniProt P15391 20-291, limits assumed).
T1 construct: not shown: His tag
T1 sequence (looked up): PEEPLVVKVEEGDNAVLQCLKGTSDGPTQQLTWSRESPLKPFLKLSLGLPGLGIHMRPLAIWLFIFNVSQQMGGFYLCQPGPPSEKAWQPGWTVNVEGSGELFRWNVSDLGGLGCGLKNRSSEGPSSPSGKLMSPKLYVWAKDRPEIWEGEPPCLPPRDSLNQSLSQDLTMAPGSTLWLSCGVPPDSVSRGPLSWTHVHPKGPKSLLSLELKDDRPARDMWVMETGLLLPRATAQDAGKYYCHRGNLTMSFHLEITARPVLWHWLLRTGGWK
Description: BLI (Octet), scFv-monoFc on AHC sensor, His-tagged human CD19 as analyte, global 1:1 fit. An excerpt:
To further screen and compare all humanized peptides, the DNA sequences encoding humanized CD19 binding variants (H1, H2, H3, H4, H5 and H6) were configured to a scFv-monoFc format and cloned (Dimitrov et al. 2012.) (SEQ ID NO. 55,57,59,61,63,65). […] They were given names as SI-63SF1(H1), SI-63SF2(H2), SI-63SF4(H3), SI-63SF5(H4), SI-63SF6(H5), and SI-63SF7(H6). Following the expression and purification processes, all six proteins were characterized for their physical characters, including yields (titer), purity (% HMW and aSEC), binding affinity (KD, Kon, and Kdis) to human CD19, and thermal stability. For Octet assay, the scFv-monoFc fusion proteins were loaded via AHC sensors at 10 ug/ml and bound to a serial dilution of His-tagged human CD19 (1:2.5 dilutions starting from the highest concentration of 200 nM), and the resulting global fit to a 1:1 binding model. For the DLS analysis, the temperature was ramped from 25° C. to 75° C. at 0.5° C./min while the radius of the scFv-monoFc fusion proteins (at 1 mg/ml) was monitored by a Wyatt DynaPro Plate Reader III.
For orientation: In BLI a coated tip is dipped into the sample, and binding shifts an interference pattern.

The target of assay [2] is T2, human CD19 protein (R&D Biosystems Cat #9269-CD-050) (human, UniProt P15391 20-291).
T2 sequence (looked up): T1 sequence (looked up)
Briefly: BLI (Octet); human CD19. As to the method:
(§1) The purified SI-63C1, SI-63C2, and SI-34C1 antibodies were tested for their binding affinity using biolayer interferometry (ForteBio OctetRED 384). The antibodies were bound to anti-human Fc biosensors, and human CD19 protein (R&D Biosystems Cat #9269-CD-050) was used as the analyte in a 4-point series of 2-fold dilutions with the highest concentration starting at 200 nM.

The target in assay [3] is T2, human CD19 protein (R&D Biosystems Cat …). Description: BLI (Octet), antibody on anti-human Fc biosensor, human CD19 as analyte. The procedure:
as §1

Assay [4] addresses T1, His-tagged human CD19. Briefly: BLI (Octet), scFv-His coupled covalently to AR2G sensor, His-tagged human CD19 as analyte. As to the method: To assess the binding affinity of SI-63R1, Octet binding assay was used. The SI-63R1 protein was loaded via covalent coupling onto AR2G sensors at 10 ug/ml and bound to a serial dilution of His-tagged human CD19 (1:2.5 dilutions from the highest concentration of 200 nM).

Assay [5] addresses T3, human CD19 on cells (CD20+ B cells of human PBMC; Raji lymphoma cells) (human, UniProt P15391 20-556).
T3 construct: whole, on cells; also called Human CD20+
T3 sequence (looked up): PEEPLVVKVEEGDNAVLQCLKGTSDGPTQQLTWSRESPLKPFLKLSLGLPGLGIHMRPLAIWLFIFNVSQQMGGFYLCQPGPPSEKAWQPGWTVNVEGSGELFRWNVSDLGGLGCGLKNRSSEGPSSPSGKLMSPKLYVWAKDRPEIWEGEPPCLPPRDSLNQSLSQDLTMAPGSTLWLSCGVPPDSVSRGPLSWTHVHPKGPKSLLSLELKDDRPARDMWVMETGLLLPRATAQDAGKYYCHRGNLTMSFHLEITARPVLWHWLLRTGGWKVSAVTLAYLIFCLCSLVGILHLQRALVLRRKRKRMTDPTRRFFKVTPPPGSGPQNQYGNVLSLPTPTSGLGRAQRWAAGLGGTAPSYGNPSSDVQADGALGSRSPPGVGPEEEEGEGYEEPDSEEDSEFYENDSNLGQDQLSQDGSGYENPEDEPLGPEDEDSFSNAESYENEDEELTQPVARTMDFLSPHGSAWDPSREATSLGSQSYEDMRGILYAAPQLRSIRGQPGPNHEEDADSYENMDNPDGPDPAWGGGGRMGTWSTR
Description: flow cytometry, dose response on human CD20+ lymphocytes. As to the method:
(§2) To determine if the humanization alters the cross reactivity, the flow cytometry was carried out. The SI-63C2 antibody was used to bind the peripheral blood mononuclear cells derived from human, cynomolgus, and rhesus, respectively. Lymphocytes were gated based on forward and side scatter, followed by single cells based on the ratio of forward scatter signal height and area. Viable CD20+ B-cell and CD20− lymphocytes are gated based on the exclusion of membrane permeable amine reactive dye and the binding level of CD20 antibody (clone 2H7, Biolegend). Binding of the labelled antibody was determined as the geometric mean fluorescence intensity (gMFI) of the cell population for the fluorescent conjugate's emission channel. As shown in the histogram analysis in FIG. 4, the SI-63C2 antibody binds to CD20+ B cells from human, cynomolgus, and rhesus (4A) but not to their CD20− lymphocytes (4B).
On the technique in general: Flow cytometry measures light scatter and fluorescence of single cells or particles in a stream.

In assay [6] the target is T4, rhesus CD19 on cells (CD20+ B cells of rhesus PBMC) (rhesus, UniProt F7F486 20-557).
T4 construct: also called Rhesus CD20+
T4 sequence: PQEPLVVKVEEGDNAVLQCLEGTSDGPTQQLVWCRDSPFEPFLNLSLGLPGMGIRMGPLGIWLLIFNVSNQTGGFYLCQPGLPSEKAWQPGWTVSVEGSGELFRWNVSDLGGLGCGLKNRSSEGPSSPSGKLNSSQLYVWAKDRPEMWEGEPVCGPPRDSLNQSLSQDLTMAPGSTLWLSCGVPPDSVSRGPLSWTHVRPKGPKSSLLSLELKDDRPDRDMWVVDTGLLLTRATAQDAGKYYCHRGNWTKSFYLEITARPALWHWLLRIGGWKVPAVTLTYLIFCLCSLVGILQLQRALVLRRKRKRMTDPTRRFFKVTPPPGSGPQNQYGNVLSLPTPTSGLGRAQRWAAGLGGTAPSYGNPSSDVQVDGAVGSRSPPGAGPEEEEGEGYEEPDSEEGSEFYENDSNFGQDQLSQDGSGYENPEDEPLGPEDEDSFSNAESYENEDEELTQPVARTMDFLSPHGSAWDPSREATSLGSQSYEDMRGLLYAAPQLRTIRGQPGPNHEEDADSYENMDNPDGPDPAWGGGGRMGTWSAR
Description: flow cytometry, dose response on rhesus CD20+ lymphocytes. The procedure:
as §2

Assay [7] concerns the target T5, cynomolgus CD19 on cells (CD20+ B cells of cynomolgus PBMC) (cynomolgus).
T5 construct: whole, on cells; also called Cynomolgus CD20+
Briefly: flow cytometry, dose response on cynomolgus CD20+ lymphocytes. The procedure: as §2

Residue numbers refer to the chain shown, from its start.

B1: SI-63SF6 (H5 scFv-monoFc fusion protein) (Fc fusion)
chain: EIVMTQSPSTLSASVGDRVIITCSASSSVSYMHWYQQKPGKAPKLLIYDTSKLASGVPSRFSGSGSGAEFTLTISSLQPDDFATYYCFQGSVYPFTFGQGTKLTVLGGGGSGGGGSGGGGSGGGGSEVQLVESGGGLVQPGGSLRLSCVFSGFSLSTSGMGVGWVRQAPGKGLEWVGHIWWDDDKRYNPALKSRFTISRDTSKNTVYLQMNSLRAEDTAVYYCARMELWSYYFDYWGQGTLVTVSSGSSGSGSGSTGLVPRGSTSSSGTGTSAGTPVAGPSVFLFPPKPKDTLMISRTPEVTCVVVDVSHEDPEVKFNWYVDGVEVHNAKTKPREEQYASTYRVVSVLTVLHQDWLNGKEYKCKVSNKALPAPIEKTISKAKGQPREPQVYTLPPSRDELTKNQVSLRCHVKGFYPSDIAVEWESNGQPENNYKTTKPVLDSDGSFFLYSTLTVDKSRWQQGNVFSCSVLHEALHNHYTQKSLSLSPGKGSGLNDIFEAQKIEWHE
notes: The entry is the whole scFv-monoFc chain; also called Humanized version 5 ScFv monoFc
As to B1, in assay [1], the Kd (usually the constant that tells how readily two partners part at equilibrium) turned out to be 5.68 nM, the koff (commonly the first-order rate constant of dissociation) turned out to be 0.000339 s⁻¹ and the kon (commonly a measure of how fast the partners come together) was determined as 59700 M⁻¹ s⁻¹.

B2: SI-63SF7 (H6 scFv-monoFc fusion protein) (Fc fusion)
chain: B1 chain with V149S
notes: The entry is the whole scFv-monoFc chain; also called Humanized version 6 ScFv mono Fc
In the case of B2, in assay [1], the affinity, expressed as Kd, was 5.37 nM; the koff worked out at 0.000377 s⁻¹; the kon was found to be 70200 M⁻¹ s⁻¹.

B3: SI-34C1 (recombinant mAb with 21D4 human anti-CD19 variable sequence) (antibody, human IgG1, kappa, V domains shown)
VH: EVQLVQSGAEVKKPGESLKISCKGSGYSFSSSWIGWVRQAPGKGLEWMGIIYPDDSDTRYSPSFQGQVTISADKSIRTAYLQWSSLKASDTAMYYCARHVTMIWGVIIDFWGQGTLVTVSS
VL: AIQLTQSPSSLSASVGDRVTITCRASQGISSALAWYQQKPGKAPKLLIYDASSLESGVPSRFSGSGSGTDFTLTISSLQPEDFATYYCQQFNSYPFTFGPGTKVDIKR
notes: also called human anti-CD19 antibody (21D4)
B3 registered a Kd in assay [2] of 2.1 nM. Moreover, in assay [3], binding was characterised by a dissociation constant (Kd) of 1.56 nM, the koff was 0.000101 s⁻¹ and the kon is 64400 M⁻¹ s⁻¹.

B4: SI-63R1 (humanized anti-CD19 H1 scFv-His-tagged protein) (scFv)
scFv: ENVLTQSPASLSASPGERVTITCSASSSVSYMHWYQQKPGQAPKLWIYDTSKLASGVPSRFSGSGSGNDHTLTISSMEPEDFATYYCFQGSVYPFTFGQGTKLEIKGGGGSGGGGSGGGGSGGGGSQVTLKESGPGLVQPGQTLRLTCAFSGFSLSTSGMGVGWIRQPPGKGLEWLAHIWWDDDKRYNPALKSRLTISKDTSKNQVYLQMNSLDAEDTAVYYCARMELWSYYFDYWGQGTLVTVSSGSHHHHHH
notes: also called SI-63R1(H1)
In assay [4], B4 gave a Kd of 1.83 nM and a koff of 9.15e-05 s⁻¹.

B5: SI-63C1 (recombinant chimeric mAb with BU12 mouse parental anti-CD19 variable sequence) (antibody, V domains shown)
VH: QVTLKESGPGILQPSQTLSLTCSFSGFSLSTSGMGVGWIRQPSGKGLEWLAHIWWDDDKRYNPALKSRLTISKDTSSNQVFLKIASVDTADTAAYYCARMELWSYYFDYWGQGTTLTVSS
VL: ENVLTQSPAIMSASPGEKVTMTCSASSSVSYMHWYQQKSSTSPKLWIYDTSKLASGVPGRFSGSGSGNSHFLTISSMEAEDVATYYCFQGSVYPFTFGSGTKLEIKR
notes: Mouse BU12 variable regions on human kappa and human IgG CH1-Fc; also called BU12-chimeric; SI-63C1-AF647
Consider B5, for which the EC50 (in general, the concentration giving half of the maximal effect) in assay [5] came out at 0.231 µg/mL. The EC50 in assay [6] worked out at 0.991 µg/mL. Besides, the EC50 in assay [7] came to 0.909 µg/mL. In assay [3], this molecule registered a Kd of 3.06 nM, a koff of 0.000209 s⁻¹ and a kon of 68100 M⁻¹ s⁻¹.

B6: SI-63SF4 (H3 scFv-monoFc fusion protein) (Fc fusion)
chain: ENVLTQSPASLSASPGERVTITCSASSSVSYMHWYQQKPGQAPKLWIYDTSKLASGVPSRFSGSGSGNDHTLTISSMEPEDFATYYCFQGSVYPFTFGQGTKLTVLGGGGSGGGGSGGGGSGGGGSQVTLKESGPGLVQPGQTLRLTCAFSGFSLSTSGMGVGWIRQPPGKGLEWLAHIWWDDDKRYNPALKSRLTISKDTSKNQVYLQMNSLDAEDTAVYYCARMELWSYYFDYWGQGTLVTVSSGGSSGSGSGSTGLVPRGSTSSSGTGTSAGTPVAGPSVFLFPPKPKDTLMISRTPEVTCVVVDVSHEDPEVKFNWYVDGVEVHNAKTKPREEQYASTYRVVSVLTVLHQDWLNGKEYKCKVSNKALPAPIEKTISKAKGQPREPQVYTLPPSRDELTKNQVSLRCHVKGFYPSDIAVEWESNGQPENNYKTTKPVLDSDGSFFLYSTLTVDKSRWQQGNVFSCSVLHEALHNHYTQKSLSLSPGKGSGLNDIFEAQKIEWHE
notes: The entry is the whole scFv-monoFc chain; also called Humanized version 3 ScFv monoFc
In the case of B6, in assay [1], binding was put at a Kd of 4.18 nM and the koff turned out to be 0.00191 s⁻¹.

B7: SI-63SF1 (H1 scFv-monoFc fusion protein) (Fc fusion)
chain: B6 chain with T104E, V105I, L106K
notes: The entry is the whole scFv-monoFc chain; also called Humanized version 1 ScFv monoFc
In assay [1], B7 displayed a dissociation constant Kd of 6.89 nM and a koff of 0.000184 s⁻¹.

B8: SI-63SF2 (H2 scFv-monoFc fusion protein) (Fc fusion)
chain: B6 chain with L103I, V105I
notes: The entry is the whole scFv-monoFc chain; also called Humanized version 2 ScFv monoFc
In assay [1], B8 had a Kd of 4.22 nM and a koff of 0.00181 s⁻¹.

B9: SI-63SF5 (H4 scFv-monoFc fusion protein) (Fc fusion)
chain: B6 chain with L103V
notes: The entry is the whole scFv-monoFc chain; also called Humanized version 4 ScFv monoFc
For B9, in assay [1], the Kd was 5.02 nM and the koff came out at 0.00187 s⁻¹.
